Experimental data taken from patent US20180164286A1.

Biological target: Small BiT (SB)-eIF4E, full-length
Assay: cell-based or functional assay

Chain of Small BiT (SB)-eIF4E, full-length (chain, as listed by the source limits assumed): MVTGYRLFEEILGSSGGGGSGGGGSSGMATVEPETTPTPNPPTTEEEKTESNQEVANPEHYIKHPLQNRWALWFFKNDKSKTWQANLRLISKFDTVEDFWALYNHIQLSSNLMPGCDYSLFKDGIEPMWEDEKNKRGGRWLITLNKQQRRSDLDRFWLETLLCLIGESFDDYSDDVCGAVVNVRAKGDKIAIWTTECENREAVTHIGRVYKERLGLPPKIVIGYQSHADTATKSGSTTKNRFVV
Chain of LB-4E-BP1 - residues 29 to end (Q13541 29-118): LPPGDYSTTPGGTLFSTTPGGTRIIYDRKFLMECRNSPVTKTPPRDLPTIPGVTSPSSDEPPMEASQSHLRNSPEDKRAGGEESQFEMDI

fold-change of split-luciferase luminescence, rapamycin (50 nM, 1 h) over vehicle; HEK293 cells [fold]	Substance
0.89	4E-BP1 with C-terminal LB at residue 85 (from UniProt Q13541 1-85)
0.98	4E-BP1 with C-terminal LB at residue 95 (from UniProt Q13541 1-95)
1.18	Full-length 4E-BP1 with C-terminal LB (from UniProt Q13541 2-118)
0.89	LB-4E-BP1 - residues 29 to end (from UniProt Q13541 29-118)
